molecular target: HLA-A*02:01 (Homo sapiens, UniProt P04439, D140Y/D185E/D98H/E176V/E277Q/G131W/G231S/I119V/I121R/I166T/I218V/L300P/L318F/N151K/N90K/P208A/P217A/Q86G/Q94H/R138H/R169H/T345S); assay: MHC binding assay: UV-ligand exchange with β2m ELISA (peptide exchange yield); details: binding to HLA-A*02:01 evaluated by peptide exchange yield (UV-ligand exchange, β2m ELISA)
Text: Candidate peptides for T cell based therapies according to the present invention were further tested for their MHC binding capacity (affinity). The individual peptide-MHC complexes were produced by UV-ligand exchange, where a UV-sensitive peptide is cleaved upon UV-irradiation, and exchanged with the peptide of interest as analyzed. Only peptide candidates that can effectively bind and stabilize the peptide-receptive MHC molecules prevent dissociation of the MHC complexes. To determine the yield of the exchange reaction, an ELISA was performed based on the detection of the light chain (β2m) of stabilized MHC complexes. The assay was performed as generally described in Rodenko et al. (Rodenko et al., 2006).
96 well MAXISorp plates (NUNC) were coated over night with 2 ug/ml streptavidin in PBS at room temperature, washed 4× and blocked for 1 h at 37° C. in 2% BSA containing blocking buffer. Refolded HLA-A*02:01/MLA-001 monomers served as standards, covering the range of 15-500 ng/ml. Peptide-MHC monomers of the UV-exchange reaction were diluted 100 fold in blocking buffer. Samples were incubated for 1 h at 37° C., washed four times, incubated with 2 ug/ml HRP conjugated anti-β2m for 1 h at 37° C., washed again and detected with TMB solution that is stopped with […]. Absorption was measured at 450 nm. Candidate peptides that show a high exchange yield (preferably higher than 50%, most preferred higher than 75%) are generally preferred for a generation and production of antibodies or fragments thereof, and/or T cell receptors or fragments thereof, as they show sufficient avidity to the MHC molecules and prevent dissociation of the MHC complexes.

| Substance | Peptide exchange |
| --- | --- |
| 84 (FLLEREQLL; listed as Homo sapiens) [compound 84] | ++++ (≥75% = ++++) |
| 85 (KLLDKPEQFL; listed as Homo sapiens) [compound 85] | ++ (≥20% = ++) |
| 86 (SLFSNIESV; listed as Homo sapiens) [compound 86] | +++ (≥50 = +++) |
| 87 (KLLSLLEEA; listed as Homo sapiens) [compound 87] | +++ (≥50 = +++) |
| 88 (LLLPLELSLA; listed as Homo sapiens) [compound 88] | +++ (≥50 = +++) |
| 89 (SLAETIFIV; listed as Homo sapiens) [compound 89] | +++ (≥50 = +++) |
| 90 (AILNVDEKNQV; listed as Homo sapiens) [compound 90] | ++ (≥20% = ++) |
| 91 (LLPSIFLMV; listed as Homo sapiens) [compound 91] | ++ (≥20% = ++) |
| 92 (RLFEEVLGV; listed as Homo sapiens) [compound 92] | ++++ (≥75% = ++++) |
| 93 (RLYGYFHDA; listed as Homo sapiens) [compound 93] | ++ (≥20% = ++) |
| 94 (YLDEVAFML; listed as Homo sapiens) [compound 94] | +++ (≥50 = +++) |
| 95 (KLIDEDEPLFL; listed as Homo sapiens) [compound 95] | +++ (≥50 = +++) |
| 96 (ALDTTRHEL; listed as Homo sapiens) [compound 96] | ++ (≥20% = ++) |
| 97 (KLFEKSTGL; listed as Homo sapiens) [compound 97] | +++ (≥50 = +++) |
| 98 (FVQEKIPEL; listed as Homo sapiens) [compound 98] | +++ (≥50 = +++) |
| 99 (TLFGIQLTEA; listed as Homo sapiens) [compound 99] | +++ (≥50 = +++) |

| Substance | Peptide exchange |
| --- | --- |
| 100 (ALQSFEFRV; listed as Homo sapiens) [compound 100] | +++ (≥50 = +++) |
| 101 (SLLEVNEASSV; listed as Homo sapiens) [compound 101] | +++ (≥50 = +++) |
| 102 (GLYPVTLVGV; listed as Homo sapiens) [compound 102] | +++ (≥50 = +++) |
| 103 (YLADTVQKL; listed as Homo sapiens) [compound 103] | ++ (≥20% = ++) |
| 105 (AMLASQTEA; listed as Homo sapiens) [compound 105] | ++ (≥20% = ++) |
| 106 (VLLGSVVIFA; listed as Homo sapiens) [compound 106] | ++ (≥20% = ++) |
| 107 (RVLPGQAVTGV; listed as Homo sapiens) [compound 107] | ++ (≥20% = ++) |
| 108 (FIANLPPELKA; listed as Homo sapiens) [compound 108] | +++ (≥50 = +++) |
| 109 (ILGSFELQL; listed as Homo sapiens) [compound 109] | +++ (≥50 = +++) |
| 110 (QIQGQVSEV; listed as Homo sapiens) [compound 110] | ++ (≥20% = ++) |
| 111 (AQLEGKLVSI; listed as Homo sapiens) [compound 111] | +++ (≥50 = +++) |
| 112 (ILAQDVAQL; listed as Homo sapiens) [compound 112] | +++ (≥50 = +++) |
| 113 (FLFLKEVKV; listed as Homo sapiens) [compound 113] | ++ (≥20% = ++) |
| 114 (LLFPSDVQTL; listed as Homo sapiens) [compound 114] | ++ (≥20% = ++) |
| 115 (ILHGEVNKV; listed as Homo sapiens) [compound 115] | ++ (≥20% = ++) |

Further lines, results first:

| Peptide exchange | Substance |
| --- | --- |
| ++ (≥20% = ++) | 116 (ALLSSVAEA; listed as Homo sapiens) [compound 116] |
| ++ (≥20% = ++) | 117 (TLLEGISRA; listed as Homo sapiens) [compound 117] |
| ++ (≥20% = ++) | 119 (SLIEESEEL; listed as Homo sapiens) [compound 119] |
| ++ (≥20% = ++) | 121 (ALYVQAPTV; listed as Homo sapiens) [compound 121] |
| +++ (≥50 = +++) | 122 (SIIDTELKV; listed as Homo sapiens) [compound 122] |
| + (≥10% = +) | 123 (QTAPEEAFIKL; listed as Homo sapiens) [compound 123] |
| ++ (≥20% = ++) | 124 (ALLLRLFTI; listed as Homo sapiens) [compound 124] |
| +++ (≥50 = +++) | 125 (AALEVLAEV; listed as Homo sapiens) [compound 125] |
| +++ (≥50 = +++) | 126 (QLREAFEQL; listed as Homo sapiens) [compound 126] |
| ++ (≥20% = ++) | 128 (SILTNISEV; listed as Homo sapiens) [compound 128] |
| ++ (≥20% = ++) | 129 (KMASKVTQV; listed as Homo sapiens) [compound 129] |
| +++ (≥50 = +++) | 130 (QLYGSAITL; listed as Homo sapiens) [compound 130] |
| +++ (≥50 = +++) | 131 (SLYPHFTLL; listed as Homo sapiens) [compound 131] |
| +++ (≥50 = +++) | 132 (ALLNNVIEV; listed as Homo sapiens) [compound 132] |
| ++ (≥20% = ++) | 133 (FLDGRPLTL; listed as Homo sapiens) [compound 133] |
| ++ (≥20% = ++) | 134 (SLYKSFLQL; listed as Homo sapiens) [compound 134] |
| +++ (≥50 = +++) | 136 (LLWDAPAKC; listed as Homo sapiens) [compound 136] |
| ++ (≥20% = ++) | 137 (KLIYKDLVSV; listed as Homo sapiens) [compound 137] |
| ++ (≥20% = ++) | 138 (GIINKLVTV; listed as Homo sapiens) [compound 138] |
| +++ (≥50 = +++) | 139 (IILENIQSL; listed as Homo sapiens) [compound 139] |
| +++ (≥50 = +++) | 140 (FLDSQITTV; listed as Homo sapiens) [compound 140] |
| ++ (≥20% = ++) | 141 (NIDINNNEL; listed as Homo sapiens) [compound 141] |
| ++ (≥20% = ++) | 142 (LLDAAHASI; listed as Homo sapiens) [compound 142] |
| +++ (≥50 = +++) | 143 (MLWESIMRV; listed as Homo sapiens) [compound 143] |
| +++ (≥50 = +++) | 144 (FLISQTPLL; listed as Homo sapiens) [compound 144] |
| +++ (≥50 = +++) | 145 (ALEEKLENV; listed as Homo sapiens) [compound 145] |
| ++ (≥20% = ++) | 146 (VVAAHLAGA; listed as Homo sapiens) [compound 146] |
| +++ (≥50 = +++) | 147 (GLLSALENV; listed as Homo sapiens) [compound 147] |
| +++ (≥50 = +++) | 148 (YLILSSHQL; listed as Homo sapiens) [compound 148] |
